Values belong to the molecule of their own block, whether it stands above or below them.
Key:
[1] = biological target: proteolytically inactive human mitochondrial Lon protease mutant hLon S855A (human) (UniProt P36776); assay: cryo-EM structure; hLon S855A incubated with 1 mM ADP, 1 mg/ml diluted 5× in buffer B (20 mM HEPES pH 8.0, 150 mM NaCl, 5 mM MgCl2); map at 21 Å
[2] = biological target: proteolytically inactive human mitochondrial Lon protease mutant hLon S855A (human) (UniProt P36776); assay: cryo-EM structure; hLon S855A incubated with 1 mM AMP-PNP, 1 mg/ml diluted 5× in buffer B (20 mM HEPES pH 8.0, 150 mM NaCl, 5 mM MgCl2); map at 15 Å
[3] = biological target: the molecule itself; assay: cryo-EM 2D class averages; hLonΔ270, 1 mg/ml diluted 5× in buffer B; 2D class averages (Relion) compared with projections of five and six fitted 3M6A subunits; no 3D map
[4] = biological target: T1, hLonΔ270 mutant (Δ1–270), human Lon lacking its first 270 amino acids (human) (UniProt P36776)
T1 sequence: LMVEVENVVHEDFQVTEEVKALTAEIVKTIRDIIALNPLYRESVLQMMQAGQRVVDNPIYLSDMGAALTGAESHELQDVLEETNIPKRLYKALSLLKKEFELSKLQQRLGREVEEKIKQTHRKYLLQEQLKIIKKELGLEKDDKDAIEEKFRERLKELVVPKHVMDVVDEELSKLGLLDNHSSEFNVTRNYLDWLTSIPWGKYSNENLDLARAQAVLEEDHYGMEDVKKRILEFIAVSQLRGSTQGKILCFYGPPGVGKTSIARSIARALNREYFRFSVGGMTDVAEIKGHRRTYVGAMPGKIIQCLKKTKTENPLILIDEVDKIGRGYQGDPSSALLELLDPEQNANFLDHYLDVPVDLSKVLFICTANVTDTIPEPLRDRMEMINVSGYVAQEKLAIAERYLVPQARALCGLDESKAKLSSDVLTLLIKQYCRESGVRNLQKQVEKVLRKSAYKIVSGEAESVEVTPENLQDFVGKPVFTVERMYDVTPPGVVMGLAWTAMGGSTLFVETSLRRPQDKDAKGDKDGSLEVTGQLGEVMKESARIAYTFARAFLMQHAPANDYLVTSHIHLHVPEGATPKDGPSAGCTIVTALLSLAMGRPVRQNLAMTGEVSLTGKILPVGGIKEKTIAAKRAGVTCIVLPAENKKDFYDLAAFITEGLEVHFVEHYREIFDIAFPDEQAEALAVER

stoichiometry N [1]: 6
stoichiometry N [2]: 6
Molecule: proteolytically inactive human mitochondrial Lon protease mutant hLon S855A (from UniProt P36776 68-959) (enzyme)

B1: hLonΔ270 mutant (Δ1–270), human Lon lacking its first 270 amino acids (domain or fragment, UniProt P36776 271-959, looked up)
chain: T1 sequence
notes: primers Lon_271_FW and Lon_960_RV (to the stop codon); A few vector residues probably remain after PreScission cleavage (surmised from the primer); also called shortened hLon; source: in-fusion cloning into pOPINJ; not shown: 6×His-GST, N-terminal, cleaved
stoichiometry N [3]: 6

stimulation of the ATPase activity of hLonΔ270 by β-casein (25 μg β-casein, 5 μg hLon, 37 °C) [4]: 2 fold
stimulation of the peptidase activity of hLonΔ270 (glutaryl-Ala-Ala-Phe-MNA) by β-casein (25 μg β-casein, 5 μg hLon, 37 °C) [4]: 2 fold
B2: β-casein (natural protein)
chain: RELEELNVPGEIVESLSSSEESITRINKKIEKFQSEEQQQTEDELQDKIHPFAQTQSLVYPFPGPIPNSLPQNIPPLTQTPVVVPPFLQPEVMGVSKVKEAMAPKHKEMPFPKYPVEPFTESQSLTLTDVENLHLPLPLLQSWMHQPHQPLPPTVMFPPQSVLSLSQSKVLPVPQKAVPYPQRDMPIQAFLLYQEPVLGPVRGPFPIIV

Source: article PMC5025710, “The N-terminal domain plays a crucial role in the structure of a full-length human mitochondrial Lon protease” (Scientific Reports, 2016)
